The record followed here is paper PMC5963734 (Neuron, 2018).

No end group written: not given here.

The assay concerns the target full length calmodulin (recombinant, Xenopus cDNA), used with Ca2+ (Xenopus, UniProt P0DP33 1-149). Nature of the assay: fluorescence polarisation.

As to fluorescein-MDCLCIVTTKKYR (cysteine pairing not given here) [fluorescein-labeled PSD-95 peptide 1-13], the binding result is reported as “binds”.
